The values below come from patent US20160272683A1 (Novo Nordisk, published 2016).

Ends that are not written are not given here. * marks the point of attachment. C18 diacid = O=C(O)CCCCCCCCCCCCCCCCC(=O)*

For assay [1], the target named is T1, human calcitonin receptor (human, UniProt P30988 25-474).
T1 sequence (looked up): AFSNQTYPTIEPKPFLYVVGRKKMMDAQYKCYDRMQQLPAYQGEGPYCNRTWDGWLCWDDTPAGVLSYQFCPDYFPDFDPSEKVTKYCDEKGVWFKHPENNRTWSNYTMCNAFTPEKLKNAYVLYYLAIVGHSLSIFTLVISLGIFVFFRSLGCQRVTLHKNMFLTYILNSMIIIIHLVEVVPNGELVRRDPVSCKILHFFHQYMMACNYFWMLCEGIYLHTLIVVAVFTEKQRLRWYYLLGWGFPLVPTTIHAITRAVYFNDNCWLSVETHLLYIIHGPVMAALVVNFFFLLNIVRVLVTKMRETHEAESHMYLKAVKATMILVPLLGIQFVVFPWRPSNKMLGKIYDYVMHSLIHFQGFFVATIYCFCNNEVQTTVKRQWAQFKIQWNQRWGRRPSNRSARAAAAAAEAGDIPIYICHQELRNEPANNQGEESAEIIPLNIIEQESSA
Put plainly: cell-based or functional assay.

The target in assay [2] is T2, human amylin 3(a) receptor (human calcitonin receptor co-expressed with RAMP-3) (human, UniProt P30988 25-474; O60896 24-148, limits assumed).
T2 sequence (looked up) 1: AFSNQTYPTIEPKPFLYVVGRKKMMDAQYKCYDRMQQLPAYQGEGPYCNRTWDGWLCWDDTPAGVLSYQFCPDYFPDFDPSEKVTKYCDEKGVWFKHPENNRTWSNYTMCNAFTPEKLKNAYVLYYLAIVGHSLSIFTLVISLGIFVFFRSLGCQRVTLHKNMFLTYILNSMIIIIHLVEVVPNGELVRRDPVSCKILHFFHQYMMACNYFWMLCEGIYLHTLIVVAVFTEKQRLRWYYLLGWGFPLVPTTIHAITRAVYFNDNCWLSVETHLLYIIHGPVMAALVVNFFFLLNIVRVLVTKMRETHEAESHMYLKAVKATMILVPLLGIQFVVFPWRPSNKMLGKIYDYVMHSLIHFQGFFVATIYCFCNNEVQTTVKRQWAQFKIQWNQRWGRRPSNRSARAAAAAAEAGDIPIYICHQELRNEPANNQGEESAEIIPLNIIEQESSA
T2 sequence (looked up) 2: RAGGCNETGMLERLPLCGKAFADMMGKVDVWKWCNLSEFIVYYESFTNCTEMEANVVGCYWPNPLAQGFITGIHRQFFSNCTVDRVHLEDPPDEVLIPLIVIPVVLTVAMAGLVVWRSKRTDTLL
Put plainly: cell-based or functional assay.

Take ASGLSTATLGRLSQELHELQTYPRTETGSGTY (ends and bridges not checked) [[des1, 4G, 9T, 15Q, 21Q, 23Y, 30S, 31G, 32T, 33Y]mimylin]: the “hCTR funct. EC50 (pM)” value in assay [1] was found to be 4 pM. Further, the “hAmylin-R funct. EC50 (pM)” value in assay [2] stood at 5 pM.

With ASGLSTAVLGRLSQELHELQTYPRTETGSGTY (ends and bridges not checked) [[des1, 4G, 9V, 15Q, 21Q, 23Y, 30S, 31G, 32T, 33Y]mimylin], the “hCTR funct. EC50 (pM)” value in assay [1] turned out to be 4 pM. The “hAmylin-R funct. EC50 (pM)” value in assay [2] came to 8 pM.

As to LSGLSTAVLGRLSQELHELQTYPRTETGSQTY-NH2 [[des1, 2L, 4G, 9V, 15Q, 21Q, 23Y, 30S, 31Q, 32T, 33Y]mimylin], the “hCTR funct. EC50 (pM)” value in assay [1] worked out at 6 pM. In addition, the “hAmylin-R funct. EC50 (pM)” value in assay [2] was determined as 11 pM.

EASELSTAALGRLSAELHELATLPRTETGSGSP-NH2 [[30S, 31G]mimylin]: in assay [1], the “hCTR funct. EC50 (pM)” value is 2 pM. Besides, the “hAmylin-R funct. EC50 (pM)” value in assay [2] came to 5 pM.

B1: [N-terminal(C18 diacid), 9L]mimylin (peptide)
peptide: {C18 diacid}-EASELSTALLGRLSAELHELATLPRTETGPESP-NH2
SMILES: CC(C)C[C@H](NC(=O)[C@H](C)NC(=O)[C@@H](NC(=O)[C@H](CO)NC(=O)[C@H](CC(C)C)NC(=O)[C@H](CCC(=O)O)NC(=O)[C@H](CO)NC(=O)[C@H](C)NC(=O)[C@H](CCC(=O)O)NC(=O)CCCCCCCCCCCCCCCCC(=O)O)[C@@H](C)O)C(=O)N[C@@H](CC(C)C)C(=O)NCC(=O)N[C@@H](CCCNC(=N)N)C(=O)N[C@@H](CC(C)C)C(=O)N[C@@H](CO)C(=O)N[C@@H](C)C(=O)N[C@@H](CCC(=O)O)C(=O)N[C@@H](CC(C)C)C(=O)N[C@@H](Cc1c[nH]cn1)C(=O)N[C@@H](CCC(=O)O)C(=O)N[C@@H](CC(C)C)C(=O)N[C@@H](C)C(=O)N[C@H](C(=O)N[C@@H](CC(C)C)C(=O)N1CCC[C@H]1C(=O)N[C@@H](CCCNC(=N)N)C(=O)N[C@H](C(=O)N[C@@H](CCC(=O)O)C(=O)N[C@H](C(=O)NCC(=O)N1CCC[C@H]1C(=O)N[C@@H](CCC(=O)O)C(=O)N[C@@H](CO)C(=O)N1CCC[C@H]1C(N)=O)[C@@H](C)O)[C@@H](C)O)[C@@H](C)O
Regarding B1, the “hCTR funct. EC50 (pM)” value in assay [1] worked out at 13 pM. In addition, in assay [2], the “hAmylin-R funct. EC50 (pM)” value came out at 28 pM.

B2: [N-terminal(C18 diacid), 18A]mimylin (peptide)
peptide: {C18 diacid}-EASELSTAALGRLSAELAELATLPRTETGPESP-NH2
SMILES: CC(C)C[C@H](NC(=O)[C@H](C)NC(=O)[C@H](C)NC(=O)[C@@H](NC(=O)[C@H](CO)NC(=O)[C@H](CC(C)C)NC(=O)[C@H](CCC(=O)O)NC(=O)[C@H](CO)NC(=O)[C@H](C)NC(=O)[C@H](CCC(=O)O)NC(=O)CCCCCCCCCCCCCCCCC(=O)O)[C@@H](C)O)C(=O)NCC(=O)N[C@@H](CCCNC(=N)N)C(=O)N[C@@H](CC(C)C)C(=O)N[C@@H](CO)C(=O)N[C@@H](C)C(=O)N[C@@H](CCC(=O)O)C(=O)N[C@@H](CC(C)C)C(=O)N[C@@H](C)C(=O)N[C@@H](CCC(=O)O)C(=O)N[C@@H](CC(C)C)C(=O)N[C@@H](C)C(=O)N[C@H](C(=O)N[C@@H](CC(C)C)C(=O)N1CCC[C@H]1C(=O)N[C@@H](CCCNC(=N)N)C(=O)N[C@H](C(=O)N[C@@H](CCC(=O)O)C(=O)N[C@H](C(=O)NCC(=O)N1CCC[C@H]1C(=O)N[C@@H](CCC(=O)O)C(=O)N[C@@H](CO)C(=O)N1CCC[C@H]1C(N)=O)[C@@H](C)O)[C@@H](C)O)[C@@H](C)O
Consider B2, for which the “hCTR funct. EC50 (pM)” value in assay [1] stood at 3 pM. Also, the “hAmylin-R funct. EC50 (pM)” value in assay [2] is 4 pM.

With ASELTTAVLGRLEAELHELTTLPRTETGTGTP-NH2 [[des1, 6T, 9V, 14E, 21T, 30T, 31G, 32T]mimylin], the “hCTR funct. EC50 (pM)” value in assay [1] was found to be 103 pM. Also, the “hAmylin-R funct. EC50 (pM)” value in assay [2] came to 629 pM.

B3: [N-terminal(C18 diacid), 5H]mimylin (peptide)
peptide: {C18 diacid}-EASEHSTAALGRLSAELHELATLPRTETGPESP-NH2
SMILES: CC(C)C[C@H](NC(=O)[C@H](C)NC(=O)[C@H](C)NC(=O)[C@@H](NC(=O)[C@H](CO)NC(=O)[C@H](Cc1c[nH]cn1)NC(=O)[C@H](CCC(=O)O)NC(=O)[C@H](CO)NC(=O)[C@H](C)NC(=O)[C@H](CCC(=O)O)NC(=O)CCCCCCCCCCCCCCCCC(=O)O)[C@@H](C)O)C(=O)NCC(=O)N[C@@H](CCCNC(=N)N)C(=O)N[C@@H](CC(C)C)C(=O)N[C@@H](CO)C(=O)N[C@@H](C)C(=O)N[C@@H](CCC(=O)O)C(=O)N[C@@H](CC(C)C)C(=O)N[C@@H](Cc1c[nH]cn1)C(=O)N[C@@H](CCC(=O)O)C(=O)N[C@@H](CC(C)C)C(=O)N[C@@H](C)C(=O)N[C@H](C(=O)N[C@@H](CC(C)C)C(=O)N1CCC[C@H]1C(=O)N[C@@H](CCCNC(=N)N)C(=O)N[C@H](C(=O)N[C@@H](CCC(=O)O)C(=O)N[C@H](C(=O)NCC(=O)N1CCC[C@H]1C(=O)N[C@@H](CCC(=O)O)C(=O)N[C@@H](CO)C(=O)N1CCC[C@H]1C(N)=O)[C@@H](C)O)[C@@H](C)O)[C@@H](C)O
On to B3, for which the “hCTR funct. EC50 (pM)” value in assay [1] came to 6 pM. In assay [2], the “hAmylin-R funct. EC50 (pM)” value was determined as 8 pM.

Consider ASEVSTAVLGRLSAELHELATLPRTETGSGSP-NH2 [[des1, 5V, 9V, 30S, 31G]mimylin], for which the “hCTR funct. EC50 (pM)” value in assay [1] was found to be 2 pM. Moreover, the “hAmylin-R funct. EC50 (pM)” value in assay [2] is 7 pM.

For the molecule EASELSTAALGRLSAELHELATLPRTETGPESP-OH [[C-terminal(-)]mimylin], in assay [1], the “hCTR funct. EC50 (pM)” value came to 840 pM. Further, the “hAmylin-R funct. EC50 (pM)” value in assay [2] came to 23600 pM.

B4: [N-terminal(C18 diacid), 6H]mimylin (peptide)
peptide: {C18 diacid}-EASELHTAALGRLSAELHELATLPRTETGPESP-NH2
SMILES: CC(C)C[C@H](NC(=O)[C@H](C)NC(=O)[C@H](C)NC(=O)[C@@H](NC(=O)[C@H](Cc1c[nH]cn1)NC(=O)[C@H](CC(C)C)NC(=O)[C@H](CCC(=O)O)NC(=O)[C@H](CO)NC(=O)[C@H](C)NC(=O)[C@H](CCC(=O)O)NC(=O)CCCCCCCCCCCCCCCCC(=O)O)[C@@H](C)O)C(=O)NCC(=O)N[C@@H](CCCNC(=N)N)C(=O)N[C@@H](CC(C)C)C(=O)N[C@@H](CO)C(=O)N[C@@H](C)C(=O)N[C@@H](CCC(=O)O)C(=O)N[C@@H](CC(C)C)C(=O)N[C@@H](Cc1c[nH]cn1)C(=O)N[C@@H](CCC(=O)O)C(=O)N[C@@H](CC(C)C)C(=O)N[C@@H](C)C(=O)N[C@H](C(=O)N[C@@H](CC(C)C)C(=O)N1CCC[C@H]1C(=O)N[C@@H](CCCNC(=N)N)C(=O)N[C@H](C(=O)N[C@@H](CCC(=O)O)C(=O)N[C@H](C(=O)NCC(=O)N1CCC[C@H]1C(=O)N[C@@H](CCC(=O)O)C(=O)N[C@@H](CO)C(=O)N1CCC[C@H]1C(N)=O)[C@@H](C)O)[C@@H](C)O)[C@@H](C)O
For the molecule B4, the “hCTR funct. EC50 (pM)” value in assay [1] was 9 pM. Further, the “hAmylin-R funct. EC50 (pM)” value in assay [2] worked out at 15 pM.

Take EASELSTAALGRLSAELHELATLPRTETGPESP-NH2 [mimylin]: the “hCTR funct. EC50 (pM)” value in assay [1] was 1 pM. The “hAmylin-R funct. EC50 (pM)” value in assay [2] is 3 pM.

B5: [N-terminal(C18 diacid), 8L]mimylin (peptide)
peptide: {C18 diacid}-EASELSTLALGRLSAELHELATLPRTETGPESP-NH2
SMILES: CC(C)C[C@H](NC(=O)[C@H](C)NC(=O)[C@H](CC(C)C)NC(=O)[C@@H](NC(=O)[C@H](CO)NC(=O)[C@H](CC(C)C)NC(=O)[C@H](CCC(=O)O)NC(=O)[C@H](CO)NC(=O)[C@H](C)NC(=O)[C@H](CCC(=O)O)NC(=O)CCCCCCCCCCCCCCCCC(=O)O)[C@@H](C)O)C(=O)NCC(=O)N[C@@H](CCCNC(=N)N)C(=O)N[C@@H](CC(C)C)C(=O)N[C@@H](CO)C(=O)N[C@@H](C)C(=O)N[C@@H](CCC(=O)O)C(=O)N[C@@H](CC(C)C)C(=O)N[C@@H](Cc1c[nH]cn1)C(=O)N[C@@H](CCC(=O)O)C(=O)N[C@@H](CC(C)C)C(=O)N[C@@H](C)C(=O)N[C@H](C(=O)N[C@@H](CC(C)C)C(=O)N1CCC[C@H]1C(=O)N[C@@H](CCCNC(=N)N)C(=O)N[C@H](C(=O)N[C@@H](CCC(=O)O)C(=O)N[C@H](C(=O)NCC(=O)N1CCC[C@H]1C(=O)N[C@@H](CCC(=O)O)C(=O)N[C@@H](CO)C(=O)N1CCC[C@H]1C(N)=O)[C@@H](C)O)[C@@H](C)O)[C@@H](C)O
As to B5, the “hCTR funct. EC50 (pM)” value in assay [1] came out at 7 pM. For the same molecule, in assay [2], the “hAmylin-R funct. EC50 (pM)” value came to 9 pM.
